In the supplement of paper PMC10065799, “High-throughput profiling of sequence recognition by tyrosine kinases and SH2 domains using bacterial peptide display” (eLife, 2023):

Key:
[1] = target: EPHB2 (UniProt P29323); assay: phosphorylation enrichment, bacterial display (enrichment ratio); higher = better substrate or ligand; peptides without Tyr show the background
[2] = system: Fer (mouse); assay: as above
[3] = target: EPHB1 (UniProt P54762); assay: as above
[4] = target: Fes (UniProt P07332); assay: as above
[5] = target: Fyn (UniProt P06241); assay: as above
[6] = target: Jak2 (UniProt O60674); assay: as above
[7] = system: AncSZ; assay: as above
[8] = target: MERTK (UniProt Q12866); assay: as above
[9] = target: FGFR3 (UniProt P22607); assay: as above
[10] = system: c-Abl (mouse); assay: as above
[11] = target: FGFR1 (UniProt P11362); assay: as above
[12] = target: Hck (UniProt P08631); assay: as above
[13] = system: c-Src; assay: as above
[14] = target: SHP2-C SH2; assay: SH2 binding enrichment of the phosphorylated peptide, bacterial display (enrichment ratio); higher = better substrate or ligand; peptides without Tyr show the background
[15] = target: c-Src SH2; assay: as above
[16] = target: Grb2 SH2 (UniProt P62993); assay: as above
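Throughout, for SH2 binding enrichment of the phosphorylated peptide, bacterial display: peptide library displayed on the E. coli surface as eCPX fusions, selected cells deep-sequenced, score is each peptide's frequency after selection divided by its frequency in the input.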
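Throughout, for phosphorylation enrichment, bacterial display: 11-residue human phosphosite peptides and single-mutation variants displayed on the E. coli surface, counted by deep sequencing, each peptide's frequency after selection divided by its frequency in the unselected input library; frequency after pTyr selection over input frequency; kinase dosed for 20-30% of maximal phosphorylation in three min.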

Chain of Fyn (P06241 whole entry, looked up): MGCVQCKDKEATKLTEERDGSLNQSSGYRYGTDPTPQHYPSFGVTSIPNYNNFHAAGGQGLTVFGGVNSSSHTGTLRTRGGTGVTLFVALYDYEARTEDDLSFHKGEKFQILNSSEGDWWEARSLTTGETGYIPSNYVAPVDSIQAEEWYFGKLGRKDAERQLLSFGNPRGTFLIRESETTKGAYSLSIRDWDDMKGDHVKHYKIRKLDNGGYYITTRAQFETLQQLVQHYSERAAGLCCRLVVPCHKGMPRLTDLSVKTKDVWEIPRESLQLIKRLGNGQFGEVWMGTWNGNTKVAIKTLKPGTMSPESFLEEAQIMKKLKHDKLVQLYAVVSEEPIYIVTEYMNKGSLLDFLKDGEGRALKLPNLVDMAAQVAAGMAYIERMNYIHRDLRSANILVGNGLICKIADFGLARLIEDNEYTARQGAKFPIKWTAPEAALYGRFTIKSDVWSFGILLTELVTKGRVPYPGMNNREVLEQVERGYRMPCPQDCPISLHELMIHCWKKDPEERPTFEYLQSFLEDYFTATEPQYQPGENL
Chain of EPHB2 (P29323 whole entry, looked up): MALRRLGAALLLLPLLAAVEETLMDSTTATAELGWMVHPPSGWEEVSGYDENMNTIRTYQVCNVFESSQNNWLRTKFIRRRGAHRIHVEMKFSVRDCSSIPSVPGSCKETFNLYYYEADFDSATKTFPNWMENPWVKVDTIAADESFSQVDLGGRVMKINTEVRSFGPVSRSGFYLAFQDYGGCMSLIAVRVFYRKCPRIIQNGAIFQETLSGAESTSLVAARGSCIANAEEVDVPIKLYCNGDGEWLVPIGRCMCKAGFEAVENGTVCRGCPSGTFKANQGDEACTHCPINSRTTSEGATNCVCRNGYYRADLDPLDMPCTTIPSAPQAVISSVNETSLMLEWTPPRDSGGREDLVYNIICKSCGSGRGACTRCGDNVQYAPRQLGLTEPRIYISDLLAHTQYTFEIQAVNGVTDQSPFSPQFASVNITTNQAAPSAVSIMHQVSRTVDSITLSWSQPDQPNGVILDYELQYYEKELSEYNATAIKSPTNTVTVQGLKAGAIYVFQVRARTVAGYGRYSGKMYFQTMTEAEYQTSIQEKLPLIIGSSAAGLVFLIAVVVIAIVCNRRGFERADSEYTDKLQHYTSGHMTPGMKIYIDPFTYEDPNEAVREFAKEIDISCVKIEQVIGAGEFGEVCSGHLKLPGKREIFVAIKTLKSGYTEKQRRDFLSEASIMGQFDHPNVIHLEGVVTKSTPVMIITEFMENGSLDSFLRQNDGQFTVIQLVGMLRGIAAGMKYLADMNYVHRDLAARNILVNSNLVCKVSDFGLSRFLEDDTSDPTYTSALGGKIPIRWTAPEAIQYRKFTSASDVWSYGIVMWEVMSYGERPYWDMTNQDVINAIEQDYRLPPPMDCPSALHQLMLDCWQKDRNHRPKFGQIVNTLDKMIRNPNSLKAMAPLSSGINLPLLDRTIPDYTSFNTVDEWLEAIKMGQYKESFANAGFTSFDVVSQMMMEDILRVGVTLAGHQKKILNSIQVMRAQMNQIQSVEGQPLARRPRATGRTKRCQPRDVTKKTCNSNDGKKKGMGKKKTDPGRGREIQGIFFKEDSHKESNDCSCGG
Chain of Fes (P07332 whole entry, looked up): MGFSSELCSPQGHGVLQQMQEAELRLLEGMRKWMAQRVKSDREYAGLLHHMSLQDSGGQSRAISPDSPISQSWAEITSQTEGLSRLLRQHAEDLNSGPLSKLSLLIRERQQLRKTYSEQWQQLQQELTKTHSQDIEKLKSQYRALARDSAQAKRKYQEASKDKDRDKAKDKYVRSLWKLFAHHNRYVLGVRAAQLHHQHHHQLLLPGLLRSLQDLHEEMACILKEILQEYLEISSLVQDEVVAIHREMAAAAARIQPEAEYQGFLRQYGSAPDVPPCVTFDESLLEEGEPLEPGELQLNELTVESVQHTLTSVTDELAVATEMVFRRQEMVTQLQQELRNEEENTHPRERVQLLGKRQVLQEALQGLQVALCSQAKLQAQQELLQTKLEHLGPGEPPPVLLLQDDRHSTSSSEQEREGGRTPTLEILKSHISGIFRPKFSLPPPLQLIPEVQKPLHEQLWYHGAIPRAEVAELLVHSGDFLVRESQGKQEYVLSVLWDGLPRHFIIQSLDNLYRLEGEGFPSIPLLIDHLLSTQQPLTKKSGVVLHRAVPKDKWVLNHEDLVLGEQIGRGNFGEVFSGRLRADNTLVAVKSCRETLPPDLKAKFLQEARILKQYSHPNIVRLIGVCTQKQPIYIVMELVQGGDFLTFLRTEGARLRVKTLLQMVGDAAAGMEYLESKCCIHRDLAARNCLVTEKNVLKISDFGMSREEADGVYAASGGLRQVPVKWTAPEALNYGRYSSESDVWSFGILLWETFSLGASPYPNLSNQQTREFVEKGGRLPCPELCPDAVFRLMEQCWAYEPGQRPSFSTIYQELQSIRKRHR
Chain of EPHB1 (P54762 whole entry, looked up): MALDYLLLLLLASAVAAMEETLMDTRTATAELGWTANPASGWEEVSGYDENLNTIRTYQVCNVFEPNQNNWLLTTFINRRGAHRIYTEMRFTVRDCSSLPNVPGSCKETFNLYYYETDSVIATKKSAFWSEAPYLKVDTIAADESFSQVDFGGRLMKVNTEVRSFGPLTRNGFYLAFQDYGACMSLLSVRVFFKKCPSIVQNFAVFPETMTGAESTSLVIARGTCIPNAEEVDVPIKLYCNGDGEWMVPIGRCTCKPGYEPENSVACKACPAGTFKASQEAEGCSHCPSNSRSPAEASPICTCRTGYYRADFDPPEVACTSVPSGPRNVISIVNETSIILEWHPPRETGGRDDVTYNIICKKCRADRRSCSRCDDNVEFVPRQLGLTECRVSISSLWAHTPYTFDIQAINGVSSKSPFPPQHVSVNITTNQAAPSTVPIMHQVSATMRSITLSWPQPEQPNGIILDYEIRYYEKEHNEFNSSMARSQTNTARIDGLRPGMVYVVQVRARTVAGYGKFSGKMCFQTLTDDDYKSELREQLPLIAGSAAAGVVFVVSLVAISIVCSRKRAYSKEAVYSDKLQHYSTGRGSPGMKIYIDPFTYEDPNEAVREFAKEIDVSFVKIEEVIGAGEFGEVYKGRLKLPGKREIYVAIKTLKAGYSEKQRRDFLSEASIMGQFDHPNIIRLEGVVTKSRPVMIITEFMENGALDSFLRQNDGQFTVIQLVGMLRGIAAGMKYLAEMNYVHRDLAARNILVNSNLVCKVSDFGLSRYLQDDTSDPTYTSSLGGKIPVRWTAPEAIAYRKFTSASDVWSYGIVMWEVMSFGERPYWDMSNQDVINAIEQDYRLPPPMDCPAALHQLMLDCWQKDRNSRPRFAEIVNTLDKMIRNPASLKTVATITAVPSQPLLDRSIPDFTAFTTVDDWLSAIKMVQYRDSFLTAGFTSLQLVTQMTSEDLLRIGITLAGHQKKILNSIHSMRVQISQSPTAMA
Chain of Jak2 (O60674 whole entry, looked up): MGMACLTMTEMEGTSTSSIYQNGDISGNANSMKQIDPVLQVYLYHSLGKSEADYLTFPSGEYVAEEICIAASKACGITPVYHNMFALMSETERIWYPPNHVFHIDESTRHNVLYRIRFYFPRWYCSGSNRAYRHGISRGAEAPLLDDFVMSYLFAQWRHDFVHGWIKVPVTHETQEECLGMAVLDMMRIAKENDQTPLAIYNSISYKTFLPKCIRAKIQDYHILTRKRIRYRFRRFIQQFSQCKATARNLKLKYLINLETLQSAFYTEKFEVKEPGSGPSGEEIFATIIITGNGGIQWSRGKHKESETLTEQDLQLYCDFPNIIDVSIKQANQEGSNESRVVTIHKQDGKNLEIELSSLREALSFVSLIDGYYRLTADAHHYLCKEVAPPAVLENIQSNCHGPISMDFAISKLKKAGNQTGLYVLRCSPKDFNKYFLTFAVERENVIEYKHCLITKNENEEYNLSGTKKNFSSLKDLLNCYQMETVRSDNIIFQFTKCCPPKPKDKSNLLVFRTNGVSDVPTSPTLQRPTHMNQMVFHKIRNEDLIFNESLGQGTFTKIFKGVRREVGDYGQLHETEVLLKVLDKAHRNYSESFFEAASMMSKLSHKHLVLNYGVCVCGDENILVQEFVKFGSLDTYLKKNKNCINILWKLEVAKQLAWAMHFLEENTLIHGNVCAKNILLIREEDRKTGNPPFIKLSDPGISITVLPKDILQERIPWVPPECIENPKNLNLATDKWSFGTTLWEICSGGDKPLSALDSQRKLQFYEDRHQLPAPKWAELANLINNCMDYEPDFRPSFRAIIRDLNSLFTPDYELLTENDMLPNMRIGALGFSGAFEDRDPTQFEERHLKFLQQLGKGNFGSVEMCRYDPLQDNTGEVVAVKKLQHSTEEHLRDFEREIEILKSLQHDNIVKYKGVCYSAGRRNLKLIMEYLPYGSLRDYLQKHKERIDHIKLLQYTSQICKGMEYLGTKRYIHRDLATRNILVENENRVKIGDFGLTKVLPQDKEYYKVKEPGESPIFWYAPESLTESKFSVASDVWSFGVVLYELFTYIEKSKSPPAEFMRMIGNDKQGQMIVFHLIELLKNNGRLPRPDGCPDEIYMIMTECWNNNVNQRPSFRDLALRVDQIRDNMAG
Chain of Hck (P08631 whole entry, looked up): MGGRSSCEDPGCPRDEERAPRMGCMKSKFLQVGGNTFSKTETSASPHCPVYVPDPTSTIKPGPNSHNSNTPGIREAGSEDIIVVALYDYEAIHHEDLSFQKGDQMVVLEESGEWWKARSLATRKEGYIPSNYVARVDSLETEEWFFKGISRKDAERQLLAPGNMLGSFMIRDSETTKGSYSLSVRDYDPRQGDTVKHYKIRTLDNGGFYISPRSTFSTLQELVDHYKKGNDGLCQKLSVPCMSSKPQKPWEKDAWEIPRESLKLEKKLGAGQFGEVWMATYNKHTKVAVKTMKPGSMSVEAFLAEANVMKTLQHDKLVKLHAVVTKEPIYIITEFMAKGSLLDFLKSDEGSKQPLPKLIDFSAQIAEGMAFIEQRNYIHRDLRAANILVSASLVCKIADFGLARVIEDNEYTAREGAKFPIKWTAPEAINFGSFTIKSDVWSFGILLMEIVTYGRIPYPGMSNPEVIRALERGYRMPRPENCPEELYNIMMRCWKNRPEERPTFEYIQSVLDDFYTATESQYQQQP

| Sequence | SH2 binding enrichment [14] | SH2 binding enrichment [15] | SH2 binding enrichment [16] | phosphorylation enrichment [1] | phosphorylation enrichment [2] | phosphorylation enrichment [3] | phosphorylation enrichment [4] | phosphorylation enrichment [5] | phosphorylation enrichment [6] | phosphorylation enrichment [7] | phosphorylation enrichment [8] | phosphorylation enrichment [9] | phosphorylation enrichment [10] | phosphorylation enrichment [11] | phosphorylation enrichment [12] | phosphorylation enrichment [13] |
| --- | --- | --- | --- | --- | --- | --- | --- | --- | --- | --- | --- | --- | --- | --- | --- | --- |
| AAARPYHIQKW [ACSBG1_Y677] | 1.27 | 1.19 | 1.41 | 0.465 | 0.279 | 0.468 | 0.675 | 0.371 | 0.682 | 0.601 | 0.377 | 0.584 | 0.673 | 0.462 | 0.543 | 0.62 |
| AAFNRYDQERF [CDC73_Y293_YF] | 0.549 | 0.448 | 0.866 | 0.473 | 0.463 | 0.402 | 0.856 | 0.469 | 0.609 | 0.665 | 0.398 | 0.504 | 0.684 | 0.394 | 0.397 | 0.427 |
| AAVDEYLEYRR [FAM221A_Y17] | 1.17 | 0.539 | 0.846 | 0.477 | 0.401 | 0.531 | 1 | 0.62 | 1.21 | 1.1 | 0.469 | 0.522 | 0.698 | 0.513 | 0.863 | 0.925 |
| AAVDNYCRHNF [HLA-DRB1_Y107_T106N_YF] | 0.772 | 0.583 | 0.877 | 0.234 | 0.471 | 0.753 | 0.53 | 0.587 | 0.928 | 0.41 | 0.326 | 1.33 | 0.484 | 0.442 | 0.203 | 0.349 |
| AAVLNYKAGRD [GRIN2A_Y737] | 0.44 | 0.447 | 0.835 | 0.33 | 0.342 | 0.352 | 0.482 | 0.397 | 0.469 | 0.461 | 0.41 | 0.379 | 0.389 | 0.382 | 0.322 | 0.432 |
| ADCRYYTFPQM [GAMT_Y223_A224T] | 1.34 | 3.2 | 1.05 | 2.84 | 4.67 | 4.67 | 0.998 | 3.97 | 4.44 | 3.09 | 9.97 | 7.83 | 1.99 | 10.9 | 3.29 | 4.77 |
| ADEEYYEIIAA [FEStide_no-pY_2014] | 0.647 | 1.01 | 0.956 | 0.795 | 5.58 | 1.02 | 1.48 | 2.17 | 1.31 | 3.85 | 1.53 | 7.62 | 1.14 | 9.19 | 2.32 | 2.47 |
| ADKSAYLMGLN [MYH7_Y386] | 0.793 | 0.467 | 0.88 | 0.465 | 0.549 | 0.405 | 0.671 | 0.543 | 0.67 | 0.625 | 0.502 | 0.579 | 0.467 | 0.526 | 0.524 | 0.535 |
| ADYYDYGRGLS [KHDRBS3_Y304_H306R] | 6.25 | 0.564 | 0.698 | 17.4 | 1.22 | 15.9 | 0.831 | 6.79 | 6.26 | 3.83 | 3.88 | 15.5 | 0.967 | 17.9 | 7.62 | 4.1 |
| AEQDCYHGAIP [FER_Y461_W460C] | 0.827 | 0.65 | 0.96 | 0.655 | 0.456 | 0.648 | 1.01 | 0.472 | 0.742 | 0.864 | 0.453 | 0.599 | 0.706 | 0.523 | 0.499 | 0.599 |

Second part, led by results:

| SH2 binding enrichment [14] | SH2 binding enrichment [15] | SH2 binding enrichment [16] | Sequence | phosphorylation enrichment [1] | phosphorylation enrichment [2] | phosphorylation enrichment [3] | phosphorylation enrichment [4] | phosphorylation enrichment [5] | phosphorylation enrichment [6] | phosphorylation enrichment [7] | phosphorylation enrichment [8] | phosphorylation enrichment [9] | phosphorylation enrichment [10] | phosphorylation enrichment [11] | phosphorylation enrichment [12] | phosphorylation enrichment [13] |
| --- | --- | --- | --- | --- | --- | --- | --- | --- | --- | --- | --- | --- | --- | --- | --- | --- |
| 0.744 | 4.32 | 1.12 | AAAAMYTFLPD [MYORG_Y36] | 1.46 | 1 | 2.82 | 1.12 | 1.61 | 1.31 | 1.26 | 10.9 | 12 | 1 | 13.5 | 4.23 | 4.45 |
| 0.477 | 0.465 | 0.653 | ADARMYGVHPW [PLP1_Y207_L210H] | 0.493 | 0.355 | 0.458 | 0.726 | 4.81 | 0.521 | 0.604 | 0.391 | 0.481 | 0.53 | 0.38 | 2.42 | 3.64 |
| 0.716 | 0.638 | 1.13 | ADLTEYLSTHY [UQCRC1_Y219] | 0.622 | 0.553 | 0.58 | 0.972 | 0.549 | 0.908 | 1.01 | 0.462 | 0.697 | 0.649 | 0.52 | 0.555 | 0.625 |
| 1.08 | 0.617 | 0.897 | ADRTRYSAFGG [RBM4_Y361_A359T] | 0.356 | 0.4 | 0.345 | 0.797 | 0.413 | 0.551 | 0.599 | 0.382 | 0.44 | 0.495 | 0.391 | 0.37 | 0.399 |
| 0.799 | 0.634 | 0.833 | ADYPDCKYRPR [SOX11_Y116_Y116C] | 0.51 | 0.426 | 0.496 | 0.955 | 0.427 | 0.657 | 0.733 | 0.41 | 0.626 | 0.706 | 0.606 | 0.416 | 0.406 |
| 0.619 | 0.566 | 0.855 | AEYGLYRAMVR [VSX2_Y222_G223R] | 3.62 | 0.603 | 2.89 | 0.768 | 9.03 | 0.75 | 0.814 | 2.38 | 0.679 | 7.87 | 0.577 | 9.69 | 6.94 |
